# Literature values as cited in article PMC11386291.
# Experiments:
# [1] = biological target: MKK4 D-motif D-motif (Homo sapiens) (UniProt P45985)
# [2] = biological target: MKK6 D-motif D-motif (Homo sapiens) (UniProt P52564)
Kd [1] [µM],Kd [2] [µM],Substance
3.5,,JNK1 (from UniProt P45983)
,7.5,p38α (from UniProt Q16539)
